Laboratory results taken from FireProtDB (doi:10.1021/bi960863y).

Settings: Escherichia coli (strain K12), pH 7, Urea, CD, Potassium phosphate 10 mM, reversible: yes (>95%)

Substance: Phosphocarrier protein HPr wild type, P0AA04
- denaturant m value (0 °C): 1.29 kcal/mol/M
- denaturant midpoint (higher = more stable) (0 °C): 4 M
- unfolding free energy (0 °C): 4.63 kcal/mol
- denaturant m value (5 °C): 1.18 kcal/mol/M
- denaturant midpoint (higher = more stable) (5 °C): 4.38 M
- unfolding free energy (5 °C): 5.08 kcal/mol
- denaturant m value (10 °C): 1.36 kcal/mol/M
- denaturant midpoint (higher = more stable) (10 °C): 4.58 M
- unfolding free energy (10 °C): 5.31 kcal/mol
- denaturant m value (25 °C): 1.19 kcal/mol/M
- denaturant midpoint (higher = more stable) (25 °C): 4.58 M
- unfolding free energy (25 °C): 5.31 kcal/mol
- denaturant m value (30 °C): 1.14 kcal/mol/M
- denaturant midpoint (higher = more stable) (30 °C): 4.32 M
- unfolding free energy (30 °C): 5 kcal/mol
- denaturant m value (35 °C): 1.01 kcal/mol/M
- denaturant midpoint (higher = more stable) (35 °C): 4.04 M
- unfolding free energy (35 °C): 4.68 kcal/mol
- denaturant m value (40 °C): 1.06 kcal/mol/M
- denaturant midpoint (higher = more stable) (40 °C): 3.58 M
- unfolding free energy (40 °C): 4.14 kcal/mol
- denaturant m value (45 °C): 1.01 kcal/mol/M
- denaturant midpoint (higher = more stable) (45 °C): 2.9 M
- unfolding free energy (45 °C): 3.37 kcal/mol
- denaturant m value (50 °C): 1.11 kcal/mol/M
- denaturant midpoint (higher = more stable) (50 °C): 2.09 M
- unfolding free energy (50 °C): 2.42 kcal/mol
